Numbering of substitutions follows the chain as printed. Each block holds one binder with its values, some of them ahead of it.
Assays:
[1] = biological target: T1, CEACAM5 (CD66e) on tumour cells (human, UniProt P06731 35-685, glycosylated (natural, as on tumour cells)); test: competition by flow cytometry on KATO3 cells; competitor mouse M19 (m2F4) at 1 µg/ml, detected with anti-mouse IgG Fc-APC
T1 construct: whole, on cells; One molecule for CEACAM5 on all three cell lines; the cell line is named under assay; also called natural CEACAM5 antigen; Lovo cells
T1 sequence (looked up): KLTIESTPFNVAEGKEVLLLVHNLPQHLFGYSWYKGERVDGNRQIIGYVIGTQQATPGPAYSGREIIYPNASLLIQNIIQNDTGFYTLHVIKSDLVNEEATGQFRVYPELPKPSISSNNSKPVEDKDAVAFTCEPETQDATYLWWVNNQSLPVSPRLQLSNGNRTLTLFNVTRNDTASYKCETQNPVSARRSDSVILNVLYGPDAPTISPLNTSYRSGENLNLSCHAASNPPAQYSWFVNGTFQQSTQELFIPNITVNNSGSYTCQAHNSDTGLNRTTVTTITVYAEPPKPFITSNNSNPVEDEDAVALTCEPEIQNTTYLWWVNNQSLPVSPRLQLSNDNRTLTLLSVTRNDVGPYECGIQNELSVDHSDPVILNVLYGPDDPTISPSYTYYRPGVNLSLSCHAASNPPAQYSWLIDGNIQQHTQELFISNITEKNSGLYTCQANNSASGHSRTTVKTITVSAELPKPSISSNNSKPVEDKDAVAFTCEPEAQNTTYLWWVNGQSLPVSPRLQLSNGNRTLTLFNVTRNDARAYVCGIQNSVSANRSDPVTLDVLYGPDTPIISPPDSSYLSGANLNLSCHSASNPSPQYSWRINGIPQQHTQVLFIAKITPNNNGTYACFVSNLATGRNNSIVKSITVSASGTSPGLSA
Protocol: KATO3 cells (high expression of CEACAM5) were cultured in RPMI1640 medium containing 10% FBS. After the cells were digested with TrypLE trypsin, they were centrifuged and resuspended in DPB S solution containing 2% BSA (FACS buffer, 4° C.), and added a U-bottom 96-well plate, 5×10⁵/100 μl/well, the mouse monoclonal antibody M19 antibody (m2F4) was added to 1 μg/ml and the humanized antibody diluted in gradient (50 μg/ml, 3-fold dilution) was added, then incubated at 4° C. for 1 hour, the supernatant was discarded after centrifugation; 100 μl of solution containing anti-mouse IgG Fc-APC secondary antibody was added to each well and incubated at 4° C. for 1 hour, washing was performed once with FACS buffer, resuspending was performed in 200 μl FACS buffer, and the fluorescence signal value was read on BD C6 plus.

[2] = biological target: T2, recombinant CEACAM5 antigen (Sinobiological, 11077-H08H) (UniProt P06731 35-685); test: ELISA, coated recombinant CEACAM5-His 1 µg/ml, anti-human IgG Fc-HRP
T2 construct: Bought protein; also called CEACAM5-His recombinant protein; CEACAM5-His antigen; not shown: His tag
T2 sequence (looked up): T1 sequence (looked up)
Protocol: Recombinant CEACAM5 antigen (Sinobiological, 11077-H08H) was diluted to 1 μg/ml with DPB S solution, add into a 96-well plate, 100 μl per well, and coated overnight at 2-8° C.; the coating solution was discarded, washing was performed twice with PBS solution, PBS solution containing 2% BSA was added, and blocking was performed at room temperature for 2 hours; the blocking solution was discarded, the humanized antibody diluted in concentration gradient was added, and incubated at 37° C. for 1 hour; the antibody solution was discarded, and washing was performed for 4 times with PBS solution containing 0.05% Tween 20 (PBST solution); the anti-human IgG Fc-HRP secondary antibody was added and incubated at 37° C. for 30 minutes; washing was performed for 4 times with PBST solution, TMB chromogenic substrate was added, and color development was carried out for 5-10 minutes, then the reaction was terminated by adding equal volume of 1M H₂SO₄; the absorbance at 450 nm was read on a microplate reader.

[3] = biological target: T1, CEACAM5 (CD66e) on tumour cells; test: flow cytometry on KATO3 cells, anti-human IgG Fc-APC
Protocol: KATO3 cells (high expression of CEACAM5) were cultured in RPMI1640 medium containing 10% FBS. After the cells were digested with TrypLE trypsin, they were centrifuged and resuspended in DPBS solution containing 2% BSA (FACS buffer, 4° C.), and added to a U-bottom 96-well plate, 5×10⁵/100 μl/well, the antibody diluted in concentration gradient was added, incubated at 4° C. for 1 hour, the supernatant was discarded after centrifugation; 100 μl of solution containing anti-human IgG Fc-APC secondary antibody was added to each well and incubated at 4° C. for 1 hour, then washing was performed with FACS buffer once, resuspending was performed in 200 μl of FACS buffer, and the fluorescence signal value was read on BD C6 plus.

[4] = biological target: T1, CEACAM5 (CD66e) on tumour cells; test: hybridoma supernatant on Lovo cells, anti-mouse Fc-FITC, Celigo imaging
Protocol: Lovo cells and Lovo CEA KO cells were inoculated in 96-well plates, 10⁴ per well, and cultured overnight, 1-10 μl of hybridoma supernatant was added to Lovo/Lovo CEA KO cell culture plates, incubated for 1 hour, the supernatant was discarded, anti-mouse Fc-FITC fluorescent secondary antibody was added, incubated for 1 hour, the supernatant was discarded, DPBS solution containing 2% BSA was added, the fluorescent signals and FITC staining areas were read and analyzed in Celigo.

B1: Humanized antibody hAb-013 (antibody, V domains shown)
VH: EVQLVESGGGLVQPGGSLRLSCAASGFTFTDYYMDWVRQAPGKALEWVGFTRNKVNGDTTEYAASVKGRFTISRDDSKNSLYLQMNSLKTEDTAVYYCARDKGIAYYFDYWGQGTLVTVSS
VL: QIVLTQSPATLSASPGERATLSCRASSSVSYIHWYQQKPGQSPRPLIYGTSNLASGVPARFSGSGSGTDFTLTISSLEPEDAAVYYCQQWSSNLSTFGGGTKVEIK
notes: also called hM19-11
Emax Inhibition, % [1]: 89%
IC50 [1]: 5.2 µg/mL
EC50 [2]: 6.1 µg/mL
EC50 [3]: 12.7 µg/mL
Emax [3]: 49.3%

B4: Humanized antibody hAb-003 (antibody, V domains shown)
VH: B1 VH with Y33F, D35N, F50Q, T51M, A64E, K67E
VL: DIQMTQSPSSLSASVGDRVTITCRASSSVSYIHWYQQKPGKSPKPLIYGTSNLASGVPSRFSGSGSGTDFTLTISSLQPEDAATYYCQQWSSNLSTFGQGTKLEIK
notes: also called hM19-1
Emax Inhibition, % [1]: 51.3%
IC50 [1]: 3.9 µg/mL
EC50 [2]: 3.69 µg/mL
EC50 [3]: 2.7 µg/mL
Emax [3]: 85.1%

B9: M7 (11B6), mouse hybridoma antibody (antibody, V domains shown)
VH: EVQLQQSGAELVRPGASVKLSCTVSGFNIKDDYMHWVKQRPEQGLEWIGWIDPENGDTEYASKFQGKATITADTSSNSAYLQLSSLTSEDTAVYYCTFIYYVNPHYYAMDYWGQGTSVTVSS
VL: QIVLTQSPAIMSASPGEKVTITCSATSSVSYMHWFQQKPGTSPKLWIYSTSNLASGVPARFSGSGSGTSYSLTISRVEAEDAATYYCQQRSSYPLTFGAGTKLELK
notes: Hybridoma supernatant, detected with anti-mouse Fc
Lovo binding percentage [4]: 54.6%

B10: M17 (6A8), mouse hybridoma antibody (antibody, V domains shown)
VH: EVQLQQSGAELVRPGASVKLSCTASGFNIKDDYMHWVKQRPEQGLEWIGWIDPENGDTEYASKFQGKATITADTSSNTAYLLLSSLTSEDTAVYYCTTIYYYGSRGAMDYWGQGTSVTVSS
VL: B9 VL with T26S, S49T, N52T, S71F, V77M, Q88H
notes: as for B9
Lovo binding percentage [4]: 34.7%

Next, values leading:

Emax Inhibition, % [1]: 47.2%
IC50 [1]: 6.9 µg/mL
EC50 [2]: 3.11 µg/mL
EC50 [3]: 5.7 µg/mL
Emax [3]: 118%
B2: Humanized antibody hAb-006 (antibody, V domains shown)
VH: B1 VH with D35N, A44G, V48L, T51I, A63S, D76I
VL: DIVLSQSPGTLSLSPGERATLSCRASSSVSYIHWYQQKPGQAPRPWIHGTSNLASGIPDRFSGSGSGTDYTLTISRLEPEDFAVYYCQQWSSNLSTFGGGTKVEIK
notes: also called hM19-4

binding result [2]: no binding
EC50 [3]: 3250 µg/mL
Emax [3]: 9.1%
B3: Humanized antibody hAb-005 (antibody, V domains shown)
VH: B1 VH with Y33T, D35S, T51I, A63S, A64D, K67E, D76N, S80T, K89R, T90A
VL: B4 VL with M4L, L46W, F70Y, L103V
notes: also called hM19-3

Emax Inhibition, % [1]: 75%
IC50 [1]: 2.3 µg/mL
EC50 [2]: 3.56 µg/mL
EC50 [3]: 1.3 µg/mL
Emax [3]: 60.6%
B5: Humanized antibody hAb-010 (antibody, V domains shown)
VH: B1 VH with T51I
VL: B1 VL with Q1E, L53R, S55T
notes: also called hM19-8

Emax Inhibition, % [1]: 73.2%
IC50 [1]: 6.4 µg/mL
EC50 [2]: 4.32 µg/mL
EC50 [3]: 3.2 µg/mL
Emax [3]: 48.4%
B6: Humanized antibody hAb-016 (antibody, V domains shown)
VH: B1 VH
VL: B1 VL with Q1E, A9G, A59D, S76R
notes: also called hM19-14

Emax Inhibition, % [1]: 62.7%
IC50 [1]: 2.7 µg/mL
EC50 [2]: 2.87 µg/mL
EC50 [3]: 1.8 µg/mL
Emax [3]: 109%
B7: Humanized antibody hAb-009 (antibody, V domains shown)
VH: B1 VH with D35N, V48L, T51I
VL: B1 VL with Q1E, S27Q, L46W, Y48H, S55T
notes: also called hM19-7

Emax Inhibition, % [1]: 73.9%
IC50 [1]: 4.5 µg/mL
EC50 [2]: 7.05 µg/mL
EC50 [3]: 2.2 µg/mL
Emax [3]: 57.7%
B8: Humanized antibody hAb-017 (antibody, V domains shown)
VH: B1 VH
VL: B1 VL with Q1E, T50A
notes: also called hM19-15

— US20230331862A1 (SHANGHAI GENBASE BIOTECHNOLOGY, published 2023)
